Source: US20180298070A1, “PEPTIDE COMPOUND” (Takeda Pharmaceutical Company Limited, published 2018)
Non-standard residues stand in square brackets, D forms with d. Groups on a side chain read outwards from the residue. Primed or numbered codes have the meaning given here. No end group written: not given here. *: point of attachment. C20 diacid = O=C(O)CCCCCCCCCCCCCCCCCCC(=O)*; NMeY = CN[C@@H](Cc1ccc(O)cc1)C(=O)O; Stearoyl = CCCCCCCCCCCCCCCCCC(=O)*; αMeF = C[C@](N)(Cc1ccccc1)C(=O)O; dIva = CC[C@@](C)(N)C(=O)O; Iva = CC[C@](C)(N)C(=O)O; PEG2′ = not defined here; Aib = CC(C)(N)C(=O)O

T1: human GLP-1R (human), P43220
T1 chain: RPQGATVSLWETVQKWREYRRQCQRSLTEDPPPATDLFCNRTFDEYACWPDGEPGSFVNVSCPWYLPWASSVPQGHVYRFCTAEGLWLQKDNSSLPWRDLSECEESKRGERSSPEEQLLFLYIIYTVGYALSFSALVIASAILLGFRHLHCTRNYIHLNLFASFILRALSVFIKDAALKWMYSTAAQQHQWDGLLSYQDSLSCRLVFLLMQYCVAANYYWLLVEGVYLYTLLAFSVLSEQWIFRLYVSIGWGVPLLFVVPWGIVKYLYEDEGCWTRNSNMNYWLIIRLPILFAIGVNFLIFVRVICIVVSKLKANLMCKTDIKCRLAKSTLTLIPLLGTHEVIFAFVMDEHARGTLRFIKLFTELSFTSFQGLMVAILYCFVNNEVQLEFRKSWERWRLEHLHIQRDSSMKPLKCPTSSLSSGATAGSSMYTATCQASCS

T2: human GIPR (human), P48546
T2 chain: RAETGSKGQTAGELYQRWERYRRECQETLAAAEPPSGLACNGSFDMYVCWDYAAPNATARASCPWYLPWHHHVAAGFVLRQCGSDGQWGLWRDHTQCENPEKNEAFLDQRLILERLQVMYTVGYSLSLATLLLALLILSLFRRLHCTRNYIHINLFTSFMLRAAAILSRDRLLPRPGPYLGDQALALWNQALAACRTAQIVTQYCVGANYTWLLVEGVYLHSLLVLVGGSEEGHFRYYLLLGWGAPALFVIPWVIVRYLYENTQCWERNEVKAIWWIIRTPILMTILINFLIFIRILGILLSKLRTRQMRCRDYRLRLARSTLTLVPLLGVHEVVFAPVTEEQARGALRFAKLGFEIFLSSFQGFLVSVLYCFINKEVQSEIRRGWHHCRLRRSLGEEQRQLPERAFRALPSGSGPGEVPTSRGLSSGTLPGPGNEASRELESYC


Legend:
[1] = biological target: T1, human GLP-1R (human), P43220
[2] = biological target: T2, human GIPR (human), P48546

| Binder | Agonist activity (EC50, M) [1] | Agonist activity (EC50, M) [2] |
| --- | --- | --- |
| [NMeY][Aib]EGTFISDYSIALDRIAQQSFVNWLLAQRPSSGAPPPSR (ends and bridges not checked) [Compound 60] | > 1e-06 M | 1.1e-12 M |
| [NMeY][Aib]EGTFISDYSIALDRIAQQSFVNW[Iva]LAQRPSSGAPPPSR (not fully specified (N-terminus, C-terminus); ends and bridges not checked) [Compound 67] | > 1e-06 M | 1.4e-12 M |
| Y[Aib]EGTVVSLYSK([Gly-Gly-Gly-Gly-Stearoyl])[Aib]LDRQAQ[Aib]EFVRWLLAQR (ends and bridges not checked) [Compound 258] | > 1e-06 M | 9.2e-11 M |
| [NMeY][Aib]EGTFISDYSIALDR[Aib]AQ[Aib]N[αMeF]VNW[Iva]LAQRPSSGAPPPSR (ends and bridges not checked) [Compound 114] |  | 1e-12 M |
| Y[Aib]EGTVVSLYSK([Gly-Gly-Gly-Gly-Stearoyl])[Aib]LDRQAQ[Aib]EFVK(Ac)WLLAQR (ends and bridges not checked) [Compound 261] | > 1e-06 M | 5.5e-11 M |
| Y[Aib]EGTVVSLYSK([Gly-Gly-Gly-Gly-C20 diacid])[Aib]LDRQAQ[Aib]EFVK(Ac)WLLAQR (ends and bridges not checked) [Compound 259] | > 1e-06 M | 1.2e-10 M |
| Y[Aib]EGTVVSLYSK([Gly-Gly-Gly-Gly-C20 diacid])[Aib]LDRQAQ[Aib]EFVRWLLAQR (ends and bridges not checked) [Compound 256] | > 1e-06 M | 3.1e-10 M |
| Y[Aib]EGTFISDYSK([PEG2′-pentadecanoyl])ALDRIAQQDFVNWLLAQRPSSGAPPPSR (ends and bridges not checked) [Compound 187] |  | 1.2e-11 M |
| Y[Aib]EGTFISDYSK([PEG(2)-C20 diacid])ALDRIAQQNFVNW[Iva]LAQRPSSGAPPPS (not fully specified (C-terminus); ends and bridges not checked) [Compound 402] | > 1e-06 M | 7.8e-11 M |
| [NMeY][Aib]EGTFISDYSI[dIva]LDRIAQQDFVNWLLAQRPSSGAPPPS (ends and bridges not checked) [Compound 63] | > 1e-06 M | 1.2e-12 M |
| Y[Aib]EGTFISDYSK([PEG(2)-C20 diacid])ALDRIAQQNFVNW[Iva]LAQRPSSGAPPPS (not fully specified (C-terminus); ends and bridges not checked) [Compound 406] | > 1e-06 M | 3.2e-10 M |
| [NMeY][Aib]EGTFISDYSIALDRIAQQD[αMeF]VNWLLAQRPSSGAPPPS (ends and bridges not checked) [Compound 62] | > 1e-06 M | 9.9e-13 M |
| Y[Aib]EGTVVSLYSK([Gly-Gly-Gly-Gly-Stearoyl])[Aib]LDRQAQ[Aib]EFVRWLLAQR (ends and bridges not checked) [Compound 257] | > 1e-06 M | 9e-11 M |
